Blank lines part the entries; values can stand above or below the binder they belong to.
Key:
HelQ = target: T1, HelQ (human, UniProt Q8TDG4 1-1101); assay: EMSA; 50 mM EDTA; HelQ 100-400 nM, DNA 15 nM; EMSA: 20 mM Tris-HCl pH 7.5, 100 mg/ml BSA (so in the source), 7% glycerol, 25 mM DTT, 50 mM EDTA, 25 nM DNA (Methods; 15 nM in legend), 37 C 10 min, 5% TBE gel; details: protein: recombinant; label: Cy5 end label; fork 1:2-25 paired with 2:27-50; 3' tail 25 nt (strand 1), 5' tail 26 nt (strand 2), 1 nt 5' overhang on strand 1
T1 sequence: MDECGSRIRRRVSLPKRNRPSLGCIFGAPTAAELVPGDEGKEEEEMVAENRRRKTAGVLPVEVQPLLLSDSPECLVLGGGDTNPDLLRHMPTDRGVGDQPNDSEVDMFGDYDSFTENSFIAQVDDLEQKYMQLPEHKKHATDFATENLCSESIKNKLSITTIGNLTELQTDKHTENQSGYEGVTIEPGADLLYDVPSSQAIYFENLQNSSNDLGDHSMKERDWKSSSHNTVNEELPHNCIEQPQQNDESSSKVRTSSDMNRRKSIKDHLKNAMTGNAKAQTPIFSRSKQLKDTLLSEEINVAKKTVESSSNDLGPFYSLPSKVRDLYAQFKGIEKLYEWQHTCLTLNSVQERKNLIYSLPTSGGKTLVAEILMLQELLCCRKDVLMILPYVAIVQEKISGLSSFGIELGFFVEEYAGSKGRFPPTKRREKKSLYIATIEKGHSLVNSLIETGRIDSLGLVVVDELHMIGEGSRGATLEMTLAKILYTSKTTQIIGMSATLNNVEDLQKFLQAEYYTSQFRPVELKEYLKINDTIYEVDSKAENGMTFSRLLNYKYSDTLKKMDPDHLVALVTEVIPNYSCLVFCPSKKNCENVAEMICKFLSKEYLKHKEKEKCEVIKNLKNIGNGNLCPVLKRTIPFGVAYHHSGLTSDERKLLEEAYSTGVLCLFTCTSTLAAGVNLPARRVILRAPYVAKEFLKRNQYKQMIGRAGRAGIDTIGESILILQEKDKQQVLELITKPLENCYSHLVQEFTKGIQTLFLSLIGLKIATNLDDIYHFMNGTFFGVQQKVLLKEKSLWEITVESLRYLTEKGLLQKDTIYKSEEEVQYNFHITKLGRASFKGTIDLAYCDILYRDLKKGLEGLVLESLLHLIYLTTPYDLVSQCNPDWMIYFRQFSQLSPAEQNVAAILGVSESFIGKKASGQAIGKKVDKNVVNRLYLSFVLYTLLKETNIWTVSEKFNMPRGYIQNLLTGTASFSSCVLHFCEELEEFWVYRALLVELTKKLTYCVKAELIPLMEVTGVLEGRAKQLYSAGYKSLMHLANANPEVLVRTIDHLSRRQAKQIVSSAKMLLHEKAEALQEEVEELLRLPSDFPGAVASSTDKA

[1] = target: T2, human DNA polymerase δ complex (PolD1-4) (human, UniProt P28340 1-1107; P49005 1-469; Q15054 1-466; Q9HCU8 1-107)
[2] = target: T2, human DNA polymerase δ complex (PolD1-4); assay: cell-based or functional assay
[3] = target: T3, human Pol δ sub-unit POLD3, purified individually (human, UniProt Q15054 1-466); assay: cell-based or functional assay
T3 sequence (looked up): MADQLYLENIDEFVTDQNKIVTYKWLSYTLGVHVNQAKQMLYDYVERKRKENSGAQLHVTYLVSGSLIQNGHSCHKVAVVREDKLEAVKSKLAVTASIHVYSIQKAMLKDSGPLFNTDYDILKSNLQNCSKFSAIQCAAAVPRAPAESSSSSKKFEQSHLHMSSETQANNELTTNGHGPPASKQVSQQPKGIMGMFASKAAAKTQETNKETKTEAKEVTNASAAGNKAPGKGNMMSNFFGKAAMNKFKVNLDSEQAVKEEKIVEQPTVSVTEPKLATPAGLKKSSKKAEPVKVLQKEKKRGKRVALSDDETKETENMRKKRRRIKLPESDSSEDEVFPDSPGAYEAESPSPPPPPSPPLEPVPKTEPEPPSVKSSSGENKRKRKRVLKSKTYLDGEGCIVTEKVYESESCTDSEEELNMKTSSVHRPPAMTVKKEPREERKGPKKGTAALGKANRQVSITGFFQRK

T2 sequence (P28340 whole entry, stated change not applied, chain 1 of 3): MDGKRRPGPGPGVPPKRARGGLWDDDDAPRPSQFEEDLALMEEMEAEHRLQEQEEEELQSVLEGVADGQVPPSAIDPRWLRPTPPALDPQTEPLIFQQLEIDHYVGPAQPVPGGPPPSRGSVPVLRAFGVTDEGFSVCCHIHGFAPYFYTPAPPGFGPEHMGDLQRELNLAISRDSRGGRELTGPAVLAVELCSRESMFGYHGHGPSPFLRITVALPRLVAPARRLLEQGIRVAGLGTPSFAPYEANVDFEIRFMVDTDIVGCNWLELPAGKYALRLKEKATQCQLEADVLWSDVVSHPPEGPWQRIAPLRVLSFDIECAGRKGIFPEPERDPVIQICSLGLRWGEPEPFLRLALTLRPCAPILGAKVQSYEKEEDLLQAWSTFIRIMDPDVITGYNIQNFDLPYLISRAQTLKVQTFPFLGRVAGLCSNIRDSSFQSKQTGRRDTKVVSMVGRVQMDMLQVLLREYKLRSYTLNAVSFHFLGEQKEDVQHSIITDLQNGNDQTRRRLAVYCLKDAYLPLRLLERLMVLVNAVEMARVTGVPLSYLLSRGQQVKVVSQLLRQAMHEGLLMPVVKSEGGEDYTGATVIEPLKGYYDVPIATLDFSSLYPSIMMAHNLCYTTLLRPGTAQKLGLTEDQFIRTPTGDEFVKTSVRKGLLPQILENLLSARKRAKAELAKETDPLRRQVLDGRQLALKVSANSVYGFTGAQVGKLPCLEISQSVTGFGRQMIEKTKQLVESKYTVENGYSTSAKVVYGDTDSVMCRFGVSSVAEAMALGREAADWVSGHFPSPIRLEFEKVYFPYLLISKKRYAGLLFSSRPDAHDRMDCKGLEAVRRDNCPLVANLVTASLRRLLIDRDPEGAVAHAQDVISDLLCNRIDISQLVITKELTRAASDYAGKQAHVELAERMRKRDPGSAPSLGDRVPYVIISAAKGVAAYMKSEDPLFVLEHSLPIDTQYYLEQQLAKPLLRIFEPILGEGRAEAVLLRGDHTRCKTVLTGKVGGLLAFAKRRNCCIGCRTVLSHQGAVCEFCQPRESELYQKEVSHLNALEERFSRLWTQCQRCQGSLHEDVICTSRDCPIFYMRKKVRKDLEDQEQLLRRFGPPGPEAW
T2 sequence (P49005 whole entry, stated change not applied, chain 2 of 3): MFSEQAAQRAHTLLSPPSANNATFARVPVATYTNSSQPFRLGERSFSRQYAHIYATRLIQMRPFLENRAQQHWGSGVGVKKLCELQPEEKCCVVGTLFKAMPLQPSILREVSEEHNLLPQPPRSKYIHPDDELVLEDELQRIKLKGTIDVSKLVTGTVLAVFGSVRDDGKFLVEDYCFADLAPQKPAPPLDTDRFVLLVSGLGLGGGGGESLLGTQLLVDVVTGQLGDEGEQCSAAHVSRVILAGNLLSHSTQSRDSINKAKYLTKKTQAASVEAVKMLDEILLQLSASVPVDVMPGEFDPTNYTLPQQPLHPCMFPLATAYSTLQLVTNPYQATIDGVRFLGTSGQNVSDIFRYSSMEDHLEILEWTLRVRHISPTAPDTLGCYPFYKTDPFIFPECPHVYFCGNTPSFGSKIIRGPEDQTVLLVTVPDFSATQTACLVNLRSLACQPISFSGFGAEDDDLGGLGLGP
T2 sequence (Q9HCU8 whole entry, stated change not applied, chain 4 of 3): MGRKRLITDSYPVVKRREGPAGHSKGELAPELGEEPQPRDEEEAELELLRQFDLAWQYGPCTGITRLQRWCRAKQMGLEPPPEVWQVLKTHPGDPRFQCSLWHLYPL

B1: forked DNA (MW12/MW14) (dsDNA)
DNA 1: GTCGGATCCTCTAGACAGCTCCATGATCACTGGCACTGGTAGAATTCGGC
DNA 2: CAACGTCATAGACGATTACATTGCTACATGGAGCTGTCTAGAGGATCCGA
- binding result (HelQ): binds

- end point of DNA synthesis by Pol δ (40 nM) pre-mixed with N-HelQ^RGx3 (5 nM), percent of DNA as product (68.8% uninhibited) [1]: 12.7%
B2: N-HelQ R51G/R52G/R53G (domain or fragment)
chain: MDECGSRIRRRVSLPKRNRPSLGCIFGAPTAAELVPGDEGKEEEEMVAENGGGKTAGVLPVEVQPLLLSDSPECLVLGGGDTNPDLLRHMPTDRGVGDQPNDSEVDMFGDYDSFTENSFIAQVDDLEQKYMQLPEHKKHATDFATENLCSESIKNKLSITTIGNLTELQTDKHTENQSGYEGVTIEPGADLLYDVPSSQAIYFENLQNSSNDLGDHSMKERDWKSSSHNTVNEELPHNCIE

- FRET ratio of DNA single-strand annealing by HelQ (125 nM) with Pol δ complex (150 nM) added; 0.51 without Pol δ [2]: 0.76 FRET ratio
- FRET efficiency of DNA single-strand annealing by HelQ (125 nM) with POLD3 alone (150 nM) added; 0.50 without POLD3, 0.07 with POLD3 alone [3]: 0.87 FRET ratio
B3: Human HelQ (enzyme, UniProt Q8TDG4 1-1101, looked up)
chain: MDECGSRIRRRVSLPKRNRPSLGCIFGAPTAAELVPGDEGKEEEEMVAENRRRKTAGVLPVEVQPLLLSDSPECLVLGGGDTNPDLLRHMPTDRGVGDQPNDSEVDMFGDYDSFTENSFIAQVDDLEQKYMQLPEHKKHATDFATENLCSESIKNKLSITTIGNLTELQTDKHTENQSGYEGVTIEPGADLLYDVPSSQAIYFENLQNSSNDLGDHSMKERDWKSSSHNTVNEELPHNCIEQPQQNDESSSKVRTSSDMNRRKSIKDHLKNAMTGNAKAQTPIFSRSKQLKDTLLSEEINVAKKTVESSSNDLGPFYSLPSKVRDLYAQFKGIEKLYEWQHTCLTLNSVQERKNLIYSLPTSGGKTLVAEILMLQELLCCRKDVLMILPYVAIVQEKISGLSSFGIELGFFVEEYAGSKGRFPPTKRREKKSLYIATIEKGHSLVNSLIETGRIDSLGLVVVDELHMIGEGSRGATLEMTLAKILYTSKTTQIIGMSATLNNVEDLQKFLQAEYYTSQFRPVELKEYLKINDTIYEVDSKAENGMTFSRLLNYKYSDTLKKMDPDHLVALVTEVIPNYSCLVFCPSKKNCENVAEMICKFLSKEYLKHKEKEKCEVIKNLKNIGNGNLCPVLKRTIPFGVAYHHSGLTSDERKLLEEAYSTGVLCLFTCTSTLAAGVNLPARRVILRAPYVAKEFLKRNQYKQMIGRAGRAGIDTIGESILILQEKDKQQVLELITKPLENCYSHLVQEFTKGIQTLFLSLIGLKIATNLDDIYHFMNGTFFGVQQKVLLKEKSLWEITVESLRYLTEKGLLQKDTIYKSEEEVQYNFHITKLGRASFKGTIDLAYCDILYRDLKKGLEGLVLESLLHLIYLTTPYDLVSQCNPDWMIYFRQFSQLSPAEQNVAAILGVSESFIGKKASGQAIGKKVDKNVVNRLYLSFVLYTLLKETNIWTVSEKFNMPRGYIQNLLTGTASFSSCVLHFCEELEEFWVYRALLVELTKKLTYCVKAELIPLMEVTGVLEGRAKQLYSAGYKSLMHLANANPEVLVRTIDHLSRRQAKQIVSSAKMLLHEKAEALQEEVEELLRLPSDFPGAVASSTDKA

— paper PMC9976902, “Interaction of human HelQ with DNA polymerase delta halts DNA synthesis and stimulates DNA single-strand annealing” (Nucleic Acids Research, 2022)
